Data taken from PMC9159282, “Structural basis of human LRG1 recognition by Magacizumab, a humanized monoclonal antibody with therapeutic potential” (Acta Crystallographica. Section D, Structural Biology, 2022).

Biological target: T1, 15-amino-acid peptide corresponding to the epitope in LRG1 (human)
T1 construct: leucine-rich alpha-2-glycoprotein 1 (LRG1), human; Gln5Pep is Gln225 of LRG1
T1 chain: GNKLQVLGKDLLLPQ
Experiment: crystal structure; co-crystallization at MagaFab:peptide molar ratios of 1:2 and 1:5, MagaFab 12 mg/ml, 0.2 M NaCl, 0.1 M bis-Tris pH 5.5, 25%(w/v) PEG 3350; two Fab and two peptide molecules per asymmetric unit
Conditions: both partners purified

B1: Magacizumab Fab fragment (Fab, V domains shown)
VH: QVQLVQSGAEVKKPGSSVKVSCKASGYTFSGYWMNWVRQAPGQGLEWIGQIYPGDGDTNYNGKFKGRVTITADKSTSTAYMELSSLRSEDTAVYYCARSITTVVLDYWGQGTTVTVSS
VL: DIVLTQSPDSLAVSLGERATISCRASQSVSTSGYSFMHWYQQKPGQPPKLLIKYASNLESGVPARFSGSGSGTDFTLTISSLQPEDFATYYCQHSWEMPLTFGQGTKLEIK
notes: heavy (VH) chain of MagaFab is chain B (second copy: chain D) of the deposited structure PDB 7q4q; light (VL) chain of MagaFab is chain A (second copy: chain C) of the deposited structure PDB 7q4q; Fab of a humanized IgG4 derived from the mouse monoclonal antibody 15C4; Observed mass of the Fab 47 461 Da, computed 47 412 Da; also called MagaFab; source: Magacizumab: CHO cell-based expression …
- binding result: binds
